Data from paper PMC3433420.
Values joined by “and” are separate entries in the source; they are usually repeats but may differ in a detail not shown here. Identical values can stand only once. Each block holds one substance with its values, some of them ahead of it.

What was measured:
[1] = target: SYK tandem SH2 domains (human); assay: peptide or protein array; SH2/PTB proteins spotted on aldehyde slides, rhodamine peptide titrated in buffer B (20 mM HEPES, 100 mM KCl, 0.1% Tween-20, 5 mM DTT, pH 7.8), 1 h at room temperature; replicate assays
[2] = target: SH3BP2 SH2 domain (human) (UniProt P78314); assay: as above
Sequence of SH3BP2 SH2 domain (human) (P78314 457-555): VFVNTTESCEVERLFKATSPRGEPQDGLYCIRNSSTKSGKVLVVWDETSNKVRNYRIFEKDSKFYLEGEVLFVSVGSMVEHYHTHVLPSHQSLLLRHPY

[3] = target: BLK SH2 domain (human) (UniProt P51451); assay: as above
Sequence of BLK SH2 domain (human) (P51451 124-220): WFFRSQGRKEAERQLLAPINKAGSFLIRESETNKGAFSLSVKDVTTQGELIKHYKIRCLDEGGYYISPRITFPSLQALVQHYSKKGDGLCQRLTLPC

[4] = target: PTK6 SH2 domain (human) (UniProt Q13882); assay: as above
Sequence of PTK6 SH2 domain (human) (Q13882 78-170): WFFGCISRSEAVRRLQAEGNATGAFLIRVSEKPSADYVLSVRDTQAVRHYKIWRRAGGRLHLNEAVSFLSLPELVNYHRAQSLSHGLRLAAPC

[5] = target: RASA1 N-terminal SH2 domain (human) (UniProt P20936); assay: as above
Sequence of RASA1 N-terminal SH2 domain (human) (P20936 whole entry, the tested form may be a part): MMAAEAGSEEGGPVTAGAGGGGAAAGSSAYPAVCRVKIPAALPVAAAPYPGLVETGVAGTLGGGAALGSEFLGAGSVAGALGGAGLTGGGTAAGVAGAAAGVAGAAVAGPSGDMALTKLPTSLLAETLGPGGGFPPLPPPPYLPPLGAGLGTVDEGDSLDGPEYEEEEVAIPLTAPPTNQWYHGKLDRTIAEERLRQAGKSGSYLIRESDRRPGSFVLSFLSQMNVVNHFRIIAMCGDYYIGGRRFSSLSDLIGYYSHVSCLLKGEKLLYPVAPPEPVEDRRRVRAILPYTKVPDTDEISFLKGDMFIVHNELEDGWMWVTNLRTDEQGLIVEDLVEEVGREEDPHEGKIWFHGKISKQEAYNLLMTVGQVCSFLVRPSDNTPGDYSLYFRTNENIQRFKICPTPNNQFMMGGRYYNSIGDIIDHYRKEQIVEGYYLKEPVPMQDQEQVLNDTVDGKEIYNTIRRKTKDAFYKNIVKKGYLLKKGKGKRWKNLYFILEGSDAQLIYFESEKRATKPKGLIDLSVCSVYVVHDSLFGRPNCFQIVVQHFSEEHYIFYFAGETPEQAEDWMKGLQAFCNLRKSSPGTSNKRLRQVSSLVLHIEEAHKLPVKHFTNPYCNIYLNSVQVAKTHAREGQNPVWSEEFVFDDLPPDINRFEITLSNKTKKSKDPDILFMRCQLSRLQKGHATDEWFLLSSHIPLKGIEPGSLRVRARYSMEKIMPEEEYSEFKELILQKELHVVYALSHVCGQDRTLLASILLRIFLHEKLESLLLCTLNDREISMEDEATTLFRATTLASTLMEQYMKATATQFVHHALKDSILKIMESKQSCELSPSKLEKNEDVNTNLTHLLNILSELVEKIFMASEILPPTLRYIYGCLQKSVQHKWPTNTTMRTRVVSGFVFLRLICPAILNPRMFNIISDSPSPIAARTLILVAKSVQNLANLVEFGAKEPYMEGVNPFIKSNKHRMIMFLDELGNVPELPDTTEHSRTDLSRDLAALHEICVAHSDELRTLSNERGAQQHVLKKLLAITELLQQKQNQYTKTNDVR

[6] = target: TNS1 SH2 domain (human) (UniProt Q9HBL0); assay: as above
Sequence of TNS1 SH2 domain (human) (Q9HBL0 1567-1676): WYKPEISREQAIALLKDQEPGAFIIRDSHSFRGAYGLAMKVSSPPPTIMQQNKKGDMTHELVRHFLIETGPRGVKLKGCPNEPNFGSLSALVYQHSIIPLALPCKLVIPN

[7] = target: SH2D3A SH2 domain (human) (UniProt Q9BRG2); assay: as above
Sequence of SH2D3A SH2 domain (human) (Q9BRG2 15-114): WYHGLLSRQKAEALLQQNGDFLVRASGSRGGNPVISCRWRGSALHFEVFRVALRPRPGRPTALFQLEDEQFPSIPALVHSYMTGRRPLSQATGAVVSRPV

[8] = target: PTPN6 tandem SH2 domains (human); assay: as above
[9] = target: YES1 SH2 domain (human) (UniProt P07947); assay: as above
Sequence of YES1 SH2 domain (human) (P07947 158-255): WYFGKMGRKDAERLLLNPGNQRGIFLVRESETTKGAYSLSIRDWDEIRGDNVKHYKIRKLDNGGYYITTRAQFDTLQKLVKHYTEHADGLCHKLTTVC

[10] = target: PIK3R2 tandem SH2 domains (human) (UniProt O00459); assay: as above
Sequence of PIK3R2 tandem SH2 domains (human) (O00459 whole entry, the tested form may be a part): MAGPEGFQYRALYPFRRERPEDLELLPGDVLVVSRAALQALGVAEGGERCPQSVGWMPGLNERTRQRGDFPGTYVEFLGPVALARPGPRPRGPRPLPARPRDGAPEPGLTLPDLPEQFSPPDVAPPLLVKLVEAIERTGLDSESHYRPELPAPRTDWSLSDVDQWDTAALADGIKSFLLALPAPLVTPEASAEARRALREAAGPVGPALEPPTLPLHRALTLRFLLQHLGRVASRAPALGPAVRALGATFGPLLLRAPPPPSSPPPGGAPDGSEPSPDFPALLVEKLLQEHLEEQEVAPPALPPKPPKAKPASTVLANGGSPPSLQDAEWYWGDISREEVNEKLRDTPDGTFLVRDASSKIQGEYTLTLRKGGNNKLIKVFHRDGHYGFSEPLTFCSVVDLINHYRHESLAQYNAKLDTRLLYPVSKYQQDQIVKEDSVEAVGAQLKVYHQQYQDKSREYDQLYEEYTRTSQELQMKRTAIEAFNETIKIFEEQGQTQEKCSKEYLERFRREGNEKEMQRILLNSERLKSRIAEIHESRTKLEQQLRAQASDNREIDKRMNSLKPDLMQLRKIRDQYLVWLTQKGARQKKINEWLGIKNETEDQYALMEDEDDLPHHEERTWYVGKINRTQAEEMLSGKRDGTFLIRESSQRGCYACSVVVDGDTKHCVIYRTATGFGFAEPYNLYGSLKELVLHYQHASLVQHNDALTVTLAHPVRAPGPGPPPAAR

[11] = target: PLCG2 tandem SH2 domains (human); assay: as above
[12] = target: SH2D1A SH2 domain (human) (UniProt O60880); assay: as above
Sequence of SH2D1A SH2 domain (human) (O60880 6-104): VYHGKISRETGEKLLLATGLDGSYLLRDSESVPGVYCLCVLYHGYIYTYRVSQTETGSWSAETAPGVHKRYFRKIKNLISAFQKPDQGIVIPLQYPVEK

[13] = target: NCK1 SH2 domain (human) (UniProt P16333); assay: as above
[14] = target: BTK SH2 domain (human) (UniProt Q06187); assay: as above
Sequence of BTK SH2 domain (human) (Q06187 281-377): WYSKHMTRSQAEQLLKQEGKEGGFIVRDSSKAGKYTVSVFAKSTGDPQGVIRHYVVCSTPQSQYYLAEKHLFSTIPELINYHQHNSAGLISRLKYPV

[15] = target: HCK SH2 domain (human) (UniProt P08631); assay: as above
Sequence of HCK SH2 domain (human) (P08631 144-241): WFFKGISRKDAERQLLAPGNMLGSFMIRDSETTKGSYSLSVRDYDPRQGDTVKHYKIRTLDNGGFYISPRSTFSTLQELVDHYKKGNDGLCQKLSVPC

[16] = target: SYK C-terminal SH2 domain (human); assay: as above
[17] = target: SH2D3C SH2 domain (human) (UniProt Q8N5H7); assay: as above
Sequence of SH2D3C SH2 domain (human) (Q8N5H7 220-319): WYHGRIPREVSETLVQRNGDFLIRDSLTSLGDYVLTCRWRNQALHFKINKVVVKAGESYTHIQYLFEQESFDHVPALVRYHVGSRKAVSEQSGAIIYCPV

[18] = target: SRC SH2 domain (human) (UniProt P12931); assay: as above
[19] = target: ABL2 SH2 domain (human) (UniProt P42684); assay: as above
Sequence of ABL2 SH2 domain (human) (P42684 173-263): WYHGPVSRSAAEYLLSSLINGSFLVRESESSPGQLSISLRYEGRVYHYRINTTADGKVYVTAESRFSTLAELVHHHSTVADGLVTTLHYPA

[20] = target: TEC SH2 domain (human) (UniProt P42680); assay: as above
Sequence of TEC SH2 domain (human) (P42680 247-345): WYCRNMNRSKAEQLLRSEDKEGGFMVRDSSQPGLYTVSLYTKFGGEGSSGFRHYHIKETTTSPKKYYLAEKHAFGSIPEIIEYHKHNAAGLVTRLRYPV

[21] = target: RASA1 tandem SH2 domains (human); assay: as above
[22] = target: SHF SH2 domain (human) (UniProt Q7M4L6); assay: as above
Sequence of SHF SH2 domain (human) (Q7M4L6 323-418): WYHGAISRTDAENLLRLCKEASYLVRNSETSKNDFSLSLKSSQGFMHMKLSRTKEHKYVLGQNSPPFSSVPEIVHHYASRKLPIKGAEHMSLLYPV

[23] = target: SYK N-terminal SH2 domain (human); assay: as above
[24] = target: BLNK SH2 domain (human) (UniProt Q8WV28); assay: as above
Sequence of BLNK SH2 domain (human) (Q8WV28 346-453): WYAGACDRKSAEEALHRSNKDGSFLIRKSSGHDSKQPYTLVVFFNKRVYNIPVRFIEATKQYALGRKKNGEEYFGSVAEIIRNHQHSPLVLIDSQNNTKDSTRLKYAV

[25] = target: ErbB3pY1307 phosphopeptide, rhodamine-labelled (human); assay: fluorescence polarisation; saturation binding in solution: rhodamine peptide fixed at 10 nM, protein titrated 0.002-10 uM, 20 min at room temperature; assay buffer 20 mM HEPES, 100 mM KCl, 0.1% Tween-20, 5 mM DTT, pH 7.8; apparent KD
[26] = target: ErbB2 Y1221 non-phosphorylated peptide, rhodamine-labelled (human); assay: as above
[27] = target: ErbB2pY1196 phosphopeptide, rhodamine-labelled (human); assay: as above
[28] = target: ErbB2 Y735 non-phosphorylated peptide, rhodamine-labelled (human); assay: as above

Kd [1]: 590 nM and 805 nM
Kd [2]: 3860 nM and 1600 nM and 634 nM
Kd [3]: 803 nM and 801 nM and 511 nM
Kd [4]: 801 nM
Kd [5]: 3.46 µM
Kd [6]: 1600 nM
Kd [7]: 773 nM
Kd [8]: 5.42 µM
Kd [9]: 526 nM and 1600 nM
Kd [10]: 1470 nM
Kd [11]: 577 nM and 2900 nM and 1010 nM
Kd [12]: 748 nM and 1630 nM
Kd [13]: 5.29 µM
Kd [14]: 1530 nM
Kd [15]: 888 nM
Kd [16]: 910 nM
Kd [17]: 27.4 µM
Kd [18]: 1210 nM
Kd [19]: 1020 nM
Kd [20]: 3.22 µM and 8.7 µM
Kd [21]: 81.9 µM
Kd [22]: 933 nM and 4390 nM
Kd [23]: 801 nM and 3030 nM
Kd [24]: 46.8 µM
Substance: ErbB2 pY735 phosphopeptide, rhodamine-labelled, for protein microarrays

Kd [25]: 1880 nM
Kd [26]: 3.69 µM
Kd [27]: 1860 nM
Substance: RASA1 N-terminal SH2 domain (from UniProt P20936 1-1047) (domain or fragment)

Kd [28]: 14.9 µM
Substance: ZAP70 C-terminal SH2 domain (from UniProt P43403 1-619) (domain or fragment)
